Where “and” joins values, the source holds several entries; their conditions need not be identical. Identical values can stand only once.
B1: anti-CCR8 mAb 1-25 (antibody, human IgG1, kappa, V domains shown)
VH: QVQLVESGGGVVQPGRSLRLSCAASGFTFSNYRMHWVRQAPGKGLEWIAVIKVKSDNYGANYADSVKGRFTISRDNSKNTLYLQMNSLRAEDTAVYYCSSPTYPGSSGFAYWGQGTLVTVSS
VL: DIQMTQSPSSLSASVGDRVTITCRASQDISNYLNWYQQKPDGTVKLLIYYTSRLHTGVPSRFSGSGSGTDYTLTISNLQQEDIATYFCQQGNKFPPTFGGGTKVEINR
notes: Humanized mAb, human IgG1 / kappa
B2: anti-CCR8 mAb 1-20 (antibody, human IgG1, kappa)
heavy: not shown
light: DIVMTQAAPSLSVTPGESASISCTSSKSLLHSNGNTYLYWFLQKPGQSPQLLIYRMSNLASGVPDRFSGSGSGTAFTLKISRVEAEDVGVYYCMQHREYPFTFGSGTKLEIKRTVAAPSVFIFPPSDEQLKSGTASVVCLLNNFYPREAKVQWKVDNALQSGNSQESVTEQDSKDSTYSLSSTLTLSKADYEKHKVYACEVTHQGLSSPVTKSFNRGEC
notes: as for B1
B3: anti-CCR8 mAb 1-22 (antibody, human IgG1, kappa, V domains shown)
VH: EVQLLESGGGLVQPGGSLRLSCAASGFTFNAYAMNWVRQAPGKGLEWVARIRSKSNDYATYYGDSVKGRFTISRDNSKNTLYLQMNSLRAEDTAVYYCVRGREAYYRYDGGYYAMDVWGQGTTVTVSS
VL: DIVMTQSPLSLPVTPGEPASISCRSSKSLLHSNGNTYLYWFLQKPGQSPQLLIYRVSNLASGVPDRFSGSGSGTDFTLKISRVEAEDVGVYYCMQHREYPFTFGQGTKLEIKR
notes: as for B1

What was measured:
[1] = molecular target: T1, human CCR8 (human, UniProt P51685 1-355); test: flow cytometry, human activated T cells pre-saturated with 200 nM hCCL1
T1 construct: also called hCCR8; CC chemokine receptor 8
Method: Unbound antibodies were washed away with PBS (Invitrogen by Thermofisher Scientific, Illkirch-Graffenstaden, France) supplemented by 2% Fetal Bovine Serum (Invitrogen by Thermofisher Scientific, Illkirch-Graffenstaden, France) and 2 mM EDTA (Invitrogen by Thermofisher Scientific, Illkirch-Graffenstaden, France). Subsequently, cells are centrifuged (5 min at 400 g) and bound antibody is detected with F(ab′)2-Goat anti-Mouse IgG (H+L) Cross-Adsorbed Secondary Antibody, Alexa Fluor 488 (dilution 1/500) (Invitrogen by Thermofisher Scientific, Illkirch-Graffenstaden, France) or with F(ab′)₂-Goat anti-Human IgG Fc Secondary Antibody, PE (Invitrogen by Thermofisher Scientific, Illkirch-Graffenstaden, France) (dilution 1/1000) at 4° C. for 30 min. Detection reagent is washed away and cells are centrifuged (5 min at 400 g) and resuspended in 30 μL PBS. Bound detection antibody is quantified on a MacsQuant16 (Miltenyi, Gladbach, Germany) (B1 or B2 channel, 5000 events per acquisition). During the experiment, the respective isotype mAb controls (mouse IgG1, mouse IgG2a, mouse IgG2b, mouse IgG3 or human IgG1) (Biolegend, Amsterdam, The Netherlands) are included to exclude any unspecific binding events. EC50 values were determined via nonlinear fit “log (agonist) vs.response—Variable slope (four parameters)” function of Graphpad prism. EC50 values were not constantly determined in the same experiments.
Binding characteristics of anti-CCR8 mAb cellular reactivity was further investigated by testing their binding to activated T cells. […] For some anti-CCR8 antibodies, their binding on hCCR8 from human activated T cells was tested after a pre-saturation with 200 nM of hCCL1.

[2] = molecular target: T1, human CCR8; test: flow cytometry, human activated T cells (endogenous CCR8)
Method: (§1) In human activated T cells model, prior to mAb incubation, cells were first incubated with 200 nM of hCCL1 (R&D Systems, Minneapolis, MN, USA) or buffer PBS (Invitrogen by Thermofisher Scientific, Illkirch-Graffenstaden, France) supplemented by 2% Fetal Bovine Serum (Invitrogen by Thermofisher Scientific, Illkirch-Graffenstaden, France) and 2 mM EDTA (Invitrogen by Thermofisher Scientific, Illkirch-Graffenstaden, France) during 1 hour at 4° C. To determine EC50 value, 8 concentrations of anti-CCR8 mAb were tested. Unbound antibodies were washed away with PBS (Invitrogen by Thermofisher Scientific, Illkirch-Graffenstaden, France) supplemented by 2% Fetal Bovine Serum (Invitrogen by Thermofisher Scientific, Illkirch-Graffenstaden, France) and 2 mM EDTA (Invitrogen by Thermofisher Scientific, Illkirch-Graffenstaden, France). Subsequently, cells are centrifuged (5 min at 400 g) and bound antibody is detected with F(ab′)2-Goat anti-Mouse IgG (H+L) Cross-Adsorbed Secondary Antibody, Alexa Fluor 488 (dilution 1/500) (Invitrogen by Thermofisher Scientific, Illkirch-Graffenstaden, France) or with F(ab′)₂-Goat anti-Human IgG Fc Secondary Antibody, PE (Invitrogen by Thermofisher Scientific, Illkirch-Graffenstaden, France) (dilution 1/1000) at 4° C. for 30 min. Detection reagent is washed away and cells are centrifuged (5 min at 400 g) and resuspended in 30 μL PBS. Bound detection antibody is quantified on a MacsQuant16 (Miltenyi, Gladbach, Germany) (B1 or B2 channel, 5000 events per acquisition). During the experiment, the respective isotype mAb controls (mouse IgG1, mouse IgG2a, mouse IgG2b, mouse IgG3 or human IgG1) (Biolegend, Amsterdam, The Netherlands) are included to exclude any unspecific binding events. EC50 values were determined via nonlinear fit “log (agonist) vs.response—Variable slope (four parameters)” function of Graphpad prism. EC50 values were not constantly determined in the same experiments.
Binding characteristics of anti-CCR8 mAb cellular reactivity was further investigated by testing their binding to activated T cells.

[3] = molecular target: T1, human CCR8; test: flow cytometry, HUT78 cells (endogenous CCR8)
Method: as §1
Anti-CCR8 mAb cellular reactivity was also evaluated on native human CCR8 from HUT78 cell line by flow cytometry. In Table 4.3, Mean Fluorescence Intensity (Fold change to isotype control), the percentage of labelled cells and EC50 in nM of some anti-CCR8 antibodies are presented.

[4] = molecular target: T1, human CCR8; test: cell-based or functional assay
[5] = molecular target: T2, human CCR8 with a SNAP-tag at the N-terminus (human, UniProt P51685 1-355, SNAP-tag labelled covalently with Lumi4-Terbium); test: HTRF Tag-lite, inhibition of hCCL1-AF647 binding to SNAP-hCCR8 on HEK-293 cells
T2 construct: also called hCCR8 SNAP-tag; CCR8 SNAP-tag

[6] = molecular target: T1, human CCR8; test: cell-based or functional assay; remark: listed apart in the source

| Binder | % of labelled cells [1] [%] | % of labelled cells [2] [%] | % of labelled cells [3] [%] | IC50 of CCL1-induced hCCR8 Gi2 signaling (BRET, HEK-293) [4] | IC50 [5] [µg/mL] | Ki [5] | residual hCCL1 (100 nM) Gi2 response, protocol #2, mAb 0.08 µg/mL [6] [%] | residual hCCL1 (100 nM) Gi2 response, protocol #2, mAb 0.4 µg/mL [6] [%] | residual hCCL1 (100 nM) Gi2 response, protocol #2, mAb 10 µg/mL [6] [%] | residual hCCL1 (100 nM) Gi2 response, protocol #3, mAb 0.05 µg/mL [6] [%] | residual hCCL1 (100 nM) Gi2 response, protocol #3, mAb 0.5 µg/mL [6] [%] | residual hCCL1 (100 nM) Gi2 response, protocol #3, mAb 5 µg/mL [6] [%] |
| --- | --- | --- | --- | --- | --- | --- | --- | --- | --- | --- | --- | --- |
| B1 | 54 | 63 | 93 | 0.02 µg/mL and 0.134 nM | 0.02 | 0.01 µg/mL and 0.07 nM |  |  |  |  |  |  |
| B2 | 64 | 79 | 23 | 0.029 µg/mL and 0.194 nM | 0.09 | 0.05 µg/mL | 62 | 38 | 30 | 94 | 63 | 39 |
| B3 | 92 | 92 | 97 | 0.068 µg/mL and 0.452 nM | 0.15 | 0.08 µg/mL and 0.5 nM | 94 | 77 | 31 | 110 | 76 | 33 |

Reference: patent publication US20260132208A1 (DOMAIN THERAPEUTICS, published 2026)
